Data set [1] deals with T1, pI73R (African swine fever virus (ASFV-GZ, …, UniProt A0A2X0RU36 1-72)). The experiment in a line: BLI. A general note: Biolayer interferometry detects binding as a change in optical thickness at a sensor tip.
Data set [2] concerns the target T1, pI73R. Put plainly: EMSA. (In general: A gel shift assay detects complexes by their altered migration in electrophoresis.)

One may read the Kd as the concentration at which binding is half-saturated. On to GCUUUGAUUUCGUGCAUCUAUGGAG (ssRNA) [ssRNA], for which, in the data set with pI73R [1], the Kd came to 37.5 nM. In other words, the double-digit nanomolar range.

As for GCUUUGCAGCCGCGGCUCGGUUUAG (ssRNA) [High-GC ssRNA], the binding result with pI73R [2] is on record as “binds”.

Turning to TTGACGAGGAAGTGTCTGTT (ssDNA) [ssDNA], the Kd in the data set with pI73R [1] turned out to be 113 nM.

B1: dsRNA (dsRNA)
RNA 1: GCUUUGAUUUCGUGCAUCUAUGGAG
RNA 2: CUCCAUAGAUGCACGAAAUCAAAGC
On to B1, for which, in the data set with pI73R [1], the affinity, expressed as Kd, was 70 nM.

B2: dsDNA (dsDNA)
DNA 1: TTGACGAGGAAGTGTCTGTT
DNA 2: AACAGACACTTCCTCGTCAA
In the case of B2, the Kd in the data set with pI73R [1] was 100 nM.
